Laboratory results published in patent US9435807B2, “Use of leucyl tRNA synthetase” (Medicinal Bioconvergence Research Center, priority 2011, dated 2016).
Substitutions are numbered along the chain they refer to. Names and notes keep the numbering of the source.

B1: His-LRS-(759-1176): His-tagged fragment of leucyl tRNA synthetase, residues 759-1176 (protein)
chain: MADAGILRLYTWVEWVKEMVANWDSLRSGPASTFNDRVFASELNAGIIKTDQNYEKMMFKEALKTGFFEFQAAKDKYRELAVEGMHRELVFRFIEVQTLLLAPFCPHLCEHIWTLLGKPDSIMNASWPVAGPVNEVLIHSSQYLMEVTHDLRLRLKNYMMPAKGKKTDKQPLQKPSHCTIYVAKNYPPWQHTTLSVLRKHFEANNGKLPDNKVIASELGSMPELKKYMKKVMPFVAMIKENLEKMGPRILDLQLEFDEKAVLMENIVYLTNSLELEHIEVKFASEAEDKIREDCCPGKPLNVFRIEPGVSVSLVNPQPSNGHFSTKIEIRQGDNCDSIIRRLMKMNRGIKDLSKVKLMRFDDPLLGPRRVPVLGKEYTEKTPISEHAVFNVDLMSKKIHLTENGIRVDIGDTIIYLVH
modifications: left off: small tags and cut ends
B2: H844A: LRS (759-1176 a.a) fragment with alanine mutation H844A in the putative GAP motif (protein, UniProt Q9P2J5 759-1176, looked up, variant H844A)
chain: B1 chain with H86A
B3: R845A: LRS (759-1176 a.a) fragment with alanine mutation R845A in the putative GAP motif (protein, UniProt Q9P2J5 759-1176, looked up, variant R845A)
chain: B1 chain with R87A

Key:
RagD GTPase = target: T1, RagD GTPase (Homo sapiens, UniProt Q9NQL2); assay: In vitro GTPase assay; type: biochemical; conditions: LRS (759-1176 a.a) fragment incubated with RagD, 37° C.
T1 construct: made in house; host or cells: LRS fragment: E. coli BL21(DE3), pET 16a
T1 sequence (Q9NQL2 whole entry, the tested form may be a part): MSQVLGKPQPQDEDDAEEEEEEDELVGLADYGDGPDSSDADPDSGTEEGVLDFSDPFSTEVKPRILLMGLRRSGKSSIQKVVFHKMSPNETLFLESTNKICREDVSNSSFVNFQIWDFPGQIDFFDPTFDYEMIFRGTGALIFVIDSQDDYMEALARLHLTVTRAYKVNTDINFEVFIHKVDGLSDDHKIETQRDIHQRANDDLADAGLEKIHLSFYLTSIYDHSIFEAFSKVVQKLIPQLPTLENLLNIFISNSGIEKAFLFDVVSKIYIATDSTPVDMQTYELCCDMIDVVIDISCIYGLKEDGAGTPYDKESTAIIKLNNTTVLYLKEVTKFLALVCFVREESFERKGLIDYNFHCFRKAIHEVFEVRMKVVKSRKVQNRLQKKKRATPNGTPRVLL
Method: In FIG. 7a, the indicated amounts of Histagged LRS (759-1176 a.a) fragment were incubated with 0.15 pM RagD for 20 min at 37° C. The error bars represent mean S.D. (n=3).
In FIG. 7b, his-tagged LRS fragments (0.3 μM) were incubated with RagD for the indicated times. The error bars represent mean S.D. (n=3).
In FIG. 7d, the effects of LRS WT and mutants on GTP hydrolysis of RagD is shown. Purified LRS WT (759-1176 a.a) fragment or mutants (H844A, R845A) fragments were incubated with RagD for 20 min at 37° C. The error bars represent mean S.D. (n=3).
GTPase assays were conducted in assay buffer (20 mM piperazine-N,N9-bis(2-ethanesulfonic acid), 20 mM HEPES, 5 mM MgCl2, 125 mM NaCl, 5 mM KCl at pH 7.0, 0.5 mM GTP) containing 0.1% bovine serum albumin in a final volume of […] using GTPase assay kit (Innova Biosciences) according to manufacturer's instructions.

[1] = target: T2, LRS-(1-1176) / RagD binding (Homo sapiens, UniProt Q9NQL2); assay: ELISA for binding between LRS and RagD; conditions: GST-RagD on plate coated with His-LRS-(1-1176), fragment added during incubation
T2 construct: Purified GST-RagD was incubated with His-LRS-(1-1176) coated on a plate; made in house; host or cells: E. coli BL21(DE3) for His-LRS (pET 16a); E. coli BL21 for GST-RagD (pGEX4T3)
T2 sequence (Q9NQL2 whole entry, the tested form may be a part): as above
Method: FIGS. 13a and 13b show ELISA assay results for measuring binding affinity between LRS and RagD.
In FIG. 13b, the comparison result of binding affinity for control (GST), RagD and RagD+LRS-(759-1176) on a 96 well plate coated with LRS-(1-1176) is shown.
First, each fragment of LRS was synthesized by PCR amplification using the cDNA of LRS as a template and a primer set (Table 1) specific for each fragment. The PCR amplification was performed under the following conditions: predenaturation of the template DNA at 95° C. for 2 min; and then 30 cycles, each consisting of 30 sec at 95° C., 30 sec at 56° C., and 3 min and 30 sec at 72° C.; followed by final extension at 72° C. for 10 min. Each of the PCR products was digested with NdeI and BamHI and ligated into a pET 16a vector (Novagen) digested with the same restriction enzymes. E. coli BL21(DE3) cells were transformed with the vector and cultured to induce the expression of peptides. Each peptide expressed as a His-tag fusion protein was purified by Ni-chelating agarose. […]
A fragment of RagD was synthesized by PCR amplification using the cDNA of […] as a template and a primer set (Table 1) specific for each fragment. […] Each peptide expressed as a GST-tag fusion protein was purified by GSH agarose. […]

Row | Molecule | GTP hydrolysis by RagD GTPase (GAP activity) (RagD GTPase) | binding between RagD and LRS-(1-1176) [1] | binding between RagD and LRS-(1-1176) ([1]; listed as LRS-(759-1176))
1 | B1 | enhanced GTP hydrolysis by RagD GTPase in dose- and time-dependent manner | inhibited | decreased the binding affinity
2 | B2 | lost their GAP activity |  | 
3 | B3 | lost their GAP activity |  | 
